The test concerns the target His-tagged ferritin-based nanoparticle (FNP): Helicobacter pylori ferritin with N-terminal domain B (S. aureus | Helicobacter pylori). As to the kind of experiment: BLI. The note with it: Fc fusion.

For the substance “NiV-B-G-Fc: Nipah virus Bangladesh attachment glycoprotein G (residues 176-602) fused with a C-terminal human IgG1 Fc (from UniProt P01857)”, the dissociation constant Kd stood at 9.46 nM.

For orientation: Kd means the free concentration of one partner at which half of the binding sites on the other are occupied at equilibrium, for simple one-to-one binding. Lower therefore signals tighter binding.
